Assay results: paper PMC11487180

Experiments:
[1] = target: 3xFlag tagged PAK6, full-length, purified from HEK293 cells (human) (UniProt Q9NQU5); assay: MST; NT-647-NHS labelled PAK6 full-length at 100 nM; unlabelled MBP-LRRK2-Roc-COR titrated (R1441C 3.4 nM to 110 µM, Y1699C 3.6 nM to 118 µM); guanine nucleotides at 0.5 mM; Monolith NT.115, IR laser power 80%; analysed by PALMIST
[2] = target: MBP-LRRK2-Roc-COR (wild type) (human) (UniProt Q5S007); assay: MST; NT-647-NHS labelled MBP-LRRK2-Roc-COR at 100 nM; unlabelled GST, GST-CRIB-PAK5 or GST-CRIB-PAK6 titrated; guanine nucleotides at 0.5 mM; Monolith NT.115, IR laser power 80%; analysed by PALMIST
PAK6 (Homo sapiens) = PAK6 (Homo sapiens) (UniProt Q9NQU5); conditions: cited from earlier work
Chain of PAK6 (Homo sapiens) (Q9NQU5 whole entry): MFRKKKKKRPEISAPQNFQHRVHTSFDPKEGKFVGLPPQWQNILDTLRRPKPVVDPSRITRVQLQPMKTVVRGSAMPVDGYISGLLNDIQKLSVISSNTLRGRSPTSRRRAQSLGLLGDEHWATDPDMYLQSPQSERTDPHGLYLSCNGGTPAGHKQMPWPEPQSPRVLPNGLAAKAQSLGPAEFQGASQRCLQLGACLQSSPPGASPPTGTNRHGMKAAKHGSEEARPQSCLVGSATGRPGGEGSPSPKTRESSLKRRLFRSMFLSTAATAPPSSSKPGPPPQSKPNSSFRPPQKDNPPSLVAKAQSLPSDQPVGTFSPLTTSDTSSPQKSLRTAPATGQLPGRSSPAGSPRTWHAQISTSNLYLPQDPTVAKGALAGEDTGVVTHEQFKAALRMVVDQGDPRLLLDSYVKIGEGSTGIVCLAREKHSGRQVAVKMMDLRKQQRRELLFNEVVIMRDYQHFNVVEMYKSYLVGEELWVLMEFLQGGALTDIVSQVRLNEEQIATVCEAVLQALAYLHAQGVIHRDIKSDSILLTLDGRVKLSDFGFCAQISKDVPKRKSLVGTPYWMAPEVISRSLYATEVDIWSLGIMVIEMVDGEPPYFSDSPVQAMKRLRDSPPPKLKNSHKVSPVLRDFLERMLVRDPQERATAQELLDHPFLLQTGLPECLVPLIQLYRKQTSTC

Chain of 3xFlag tagged PAK6, full-length, purified from HEK293 cells (human) (Q9NQU5 whole entry): as above
Chain of MBP-LRRK2-Roc-COR (wild type) (human) (Q5S007 whole entry): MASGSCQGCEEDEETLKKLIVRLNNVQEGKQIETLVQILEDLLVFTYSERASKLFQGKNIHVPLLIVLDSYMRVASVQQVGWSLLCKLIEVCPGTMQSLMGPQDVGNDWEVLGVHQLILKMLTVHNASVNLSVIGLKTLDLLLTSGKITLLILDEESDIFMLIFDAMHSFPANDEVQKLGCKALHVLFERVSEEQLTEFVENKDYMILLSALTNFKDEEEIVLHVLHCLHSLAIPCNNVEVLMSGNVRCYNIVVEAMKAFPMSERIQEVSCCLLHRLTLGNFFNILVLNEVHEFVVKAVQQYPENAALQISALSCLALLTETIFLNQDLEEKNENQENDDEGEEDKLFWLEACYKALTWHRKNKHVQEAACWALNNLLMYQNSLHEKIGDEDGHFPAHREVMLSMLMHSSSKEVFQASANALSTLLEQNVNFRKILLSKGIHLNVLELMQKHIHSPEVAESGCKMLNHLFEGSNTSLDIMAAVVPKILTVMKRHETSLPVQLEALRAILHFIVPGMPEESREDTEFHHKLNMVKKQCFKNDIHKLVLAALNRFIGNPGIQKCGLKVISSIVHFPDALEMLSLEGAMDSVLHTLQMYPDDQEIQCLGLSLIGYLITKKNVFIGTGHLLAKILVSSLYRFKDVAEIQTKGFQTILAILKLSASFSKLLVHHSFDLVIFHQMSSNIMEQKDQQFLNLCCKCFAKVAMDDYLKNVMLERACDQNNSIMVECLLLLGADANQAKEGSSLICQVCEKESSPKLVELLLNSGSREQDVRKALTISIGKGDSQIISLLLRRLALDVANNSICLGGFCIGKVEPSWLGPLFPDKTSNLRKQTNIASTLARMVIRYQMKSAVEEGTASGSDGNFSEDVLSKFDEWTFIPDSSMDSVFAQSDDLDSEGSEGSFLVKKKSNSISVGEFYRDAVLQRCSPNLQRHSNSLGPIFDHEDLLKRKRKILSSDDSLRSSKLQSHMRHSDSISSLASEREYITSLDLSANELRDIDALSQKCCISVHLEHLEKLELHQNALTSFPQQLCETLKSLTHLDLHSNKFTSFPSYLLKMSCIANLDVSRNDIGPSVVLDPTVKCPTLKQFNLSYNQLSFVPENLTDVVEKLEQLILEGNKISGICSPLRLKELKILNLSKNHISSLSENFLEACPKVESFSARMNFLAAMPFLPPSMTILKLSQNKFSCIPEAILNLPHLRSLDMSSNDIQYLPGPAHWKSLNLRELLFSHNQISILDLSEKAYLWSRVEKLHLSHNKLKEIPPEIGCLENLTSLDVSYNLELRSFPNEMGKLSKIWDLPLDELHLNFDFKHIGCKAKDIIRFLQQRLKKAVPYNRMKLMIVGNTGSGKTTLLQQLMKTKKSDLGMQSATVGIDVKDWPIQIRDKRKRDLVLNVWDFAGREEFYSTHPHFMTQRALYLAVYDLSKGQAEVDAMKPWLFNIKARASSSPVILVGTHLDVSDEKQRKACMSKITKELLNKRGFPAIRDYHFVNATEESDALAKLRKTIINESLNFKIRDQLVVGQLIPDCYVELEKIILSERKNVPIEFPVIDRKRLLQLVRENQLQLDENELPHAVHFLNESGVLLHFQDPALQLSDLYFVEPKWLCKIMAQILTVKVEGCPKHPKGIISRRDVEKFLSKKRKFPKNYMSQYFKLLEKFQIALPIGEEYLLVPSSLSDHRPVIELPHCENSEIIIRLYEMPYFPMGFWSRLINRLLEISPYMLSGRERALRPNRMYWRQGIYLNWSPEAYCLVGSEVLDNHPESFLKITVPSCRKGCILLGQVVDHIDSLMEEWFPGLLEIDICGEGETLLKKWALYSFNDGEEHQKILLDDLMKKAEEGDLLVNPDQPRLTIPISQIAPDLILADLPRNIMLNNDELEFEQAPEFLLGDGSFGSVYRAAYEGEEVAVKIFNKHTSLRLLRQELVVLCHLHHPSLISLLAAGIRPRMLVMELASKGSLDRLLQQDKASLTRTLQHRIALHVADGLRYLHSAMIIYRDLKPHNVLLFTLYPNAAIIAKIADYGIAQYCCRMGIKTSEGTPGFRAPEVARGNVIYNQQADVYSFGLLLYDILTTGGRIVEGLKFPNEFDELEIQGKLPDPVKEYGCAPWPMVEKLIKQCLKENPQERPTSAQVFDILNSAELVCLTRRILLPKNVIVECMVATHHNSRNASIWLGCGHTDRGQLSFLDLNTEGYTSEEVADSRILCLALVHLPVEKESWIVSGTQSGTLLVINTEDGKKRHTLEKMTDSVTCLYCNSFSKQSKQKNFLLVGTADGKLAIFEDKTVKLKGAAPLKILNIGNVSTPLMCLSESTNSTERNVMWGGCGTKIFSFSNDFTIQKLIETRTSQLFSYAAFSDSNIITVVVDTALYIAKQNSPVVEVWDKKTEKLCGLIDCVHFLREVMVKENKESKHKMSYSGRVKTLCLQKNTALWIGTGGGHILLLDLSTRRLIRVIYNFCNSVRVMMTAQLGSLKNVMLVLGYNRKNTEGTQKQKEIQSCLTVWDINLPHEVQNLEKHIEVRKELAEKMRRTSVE
Chain of GST-CRIB(PAK5) (Q9P286 10-44): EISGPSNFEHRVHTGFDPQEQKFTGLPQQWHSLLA
Chain of GST-CRIB(PAK6) (Q9NQU5 11-45): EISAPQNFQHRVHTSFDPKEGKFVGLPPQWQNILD
Chain of LRRK2 Roc-COR (Q5S007 1328-1840): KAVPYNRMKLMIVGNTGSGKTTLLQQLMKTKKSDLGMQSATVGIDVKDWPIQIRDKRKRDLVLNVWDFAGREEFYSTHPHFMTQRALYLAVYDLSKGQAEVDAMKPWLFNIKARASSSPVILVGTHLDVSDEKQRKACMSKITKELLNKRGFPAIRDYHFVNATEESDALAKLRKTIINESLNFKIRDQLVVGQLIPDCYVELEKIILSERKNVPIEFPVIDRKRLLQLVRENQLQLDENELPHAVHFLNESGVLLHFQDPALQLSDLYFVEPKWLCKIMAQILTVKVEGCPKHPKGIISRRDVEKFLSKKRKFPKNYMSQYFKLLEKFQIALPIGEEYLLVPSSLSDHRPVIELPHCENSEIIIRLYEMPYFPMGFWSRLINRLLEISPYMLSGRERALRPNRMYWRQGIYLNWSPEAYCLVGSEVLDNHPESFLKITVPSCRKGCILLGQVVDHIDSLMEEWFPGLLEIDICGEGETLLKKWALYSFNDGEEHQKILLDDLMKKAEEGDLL

## MBP-LRRK2-Roc-COR R1441C (from UniProt Q5S007 1-2527) (domain or fragment)
[1]
  Kd: 51.8 µM

## GST-CRIB(PAK6) (from UniProt Q9NQU5 11-45) (domain or fragment)
[2]
  Kd: 12 µM

## LRRK2 Roc-COR (from UniProt Q5S007)
PAK6 (Homo sapiens)
  Kd: 10 µM

## MBP-LRRK2-Roc-COR Y1699C (from UniProt Q5S007 1-2527) (domain or fragment)
[1]
  Kd: 38.2 µM

## GST-CRIB(PAK5) (from UniProt Q9P286 10-44) (domain or fragment)
[2]
  Kd: 112 µM
